Measurements as given in the RNAGym collection of RNA variant scans (doi:10.7554/elife.80360).

B1: HDV Ribozyme (parent)
chain: GGCCGGCAUGGUCCCAGCCUCCUCGCUGGCGCCGGCUGGGCAACAUUCCGAGGGGACCGUCCCCUCGGUAAUGGCGAAUGGGACCCA

Variants of: B1
Test: self-cleavage, relative activity (ratio to wild type); higher = more cleavage; co-transcriptional

Row | Variant | self-cleavage
1 | GGCCGGCAUGGUACCAGCCUCCUCGCUGGCGCCGGCUGGGCCACAUUCCGAGGGGACCGUCCCCUCGGUAAUGGCGAAUGGGACCCA [C13A A42C] | 0.0594
2 | GGCCGGCAUGGUACCAGCCUCCUCGCUGGCGCCGGCUGGGCAAGAUUCCGAGGGGACCGUCCCCUCGGUAAUGGCGAAUGGGACCCA [C13A C44G] | 0
3 | GGCCGGCAUGGUACCAGCCUCCUCGCUGGCGCCGGCUGGGCAAUAUUCCGAGGGGACCGUCCCCUCGGUAAUGGCGAAUGGGACCCA [C13A C44U] | 0.0652
4 | GGCCGGCAUGGUACCAGCCUCCUCGCUGGCGCCGGCUGGGCAAAAUUCCGAGGGGACCGUCCCCUCGGUAAUGGCGAAUGGGACCCA [C13A C44A] | 0.119
5 | GGCCGGCAUGGUACCAGCCUCCUCGCUGGCGCCGGCUGGGCAACAUUCCGAGGGGACCGUCCCCUCGGUAAUGGCGAAUGGGACCCC [C13A A87C] | 0.222
6 | GGCCGGCAUGGUACCAGCCUCCUCGCUGGCGCCGGCUGGGCAACAUUCCGAGGGGACCGUCCCCUCGGUAAUGGCGAAUGGGACCCU [C13A A87U] | 0.157
7 | GGCCGGCAUGGUACCAGCCUCCUCGUUGGCGCCGGCUGGGCAACAUUCCGAGGGGACCGUCCCCUCGGUAAUGGCGAAUGGGACCCA [C13A C26U] | 0.764
8 | GGCCGGCAUGGGCCCAGCCUCCUCGCUGGCGCCGGCUGGGCAACAUUCCGAGGGGACCGUCCCCCCGGUAAUGGCGAAUGGGACCCA [U12G U65C] | 0.831
9 | GGCCGGCAUGGGCCCAGCCUCCUCGCUGGCGCCGGCUGGGCAACAUUCCGAGGGGACCGUCCCCGCGGUAAUGGCGAAUGGGACCCA [U12G U65G] | 0.962
10 | GGCCGGCAUGGGCCCAGCCUCCUCGCAGGCGCCGGCUGGGCAACAUUCCGAGGGGACCGUCCCCUCGGUAAUGGCGAAUGGGACCCA [U12G U27A] | 0.831
11 | GGCCGGCAUGGUACCGGCCUCCUCGCUGGCGCCGGCUGGGCAACAUUCCGAGGGGACCGUCCCCUCGGUAAUGGCGAAUGGGACCCA [C13A A16G] | 0.293
12 | GGCCGGCAUGGUACCCGCCUCCUCGCUGGCGCCGGCUGGGCAACAUUCCGAGGGGACCGUCCCCUCGGUAAUGGCGAAUGGGACCCA [C13A A16C] | 0.748
13 | GGCCGGCAUGGUACCAGCCUACUCGCUGGCGCCGGCUGGGCAACAUUCCGAGGGGACCGUCCCCUCGGUAAUGGCGAAUGGGACCCA [C13A C21A] | 0.158
14 | GGCCGGCAUGGUACCAGCCUUCUCGCUGGCGCCGGCUGGGCAACAUUCCGAGGGGACCGUCCCCUCGGUAAUGGCGAAUGGGACCCA [C13A C21U] | 0.0583
15 | GGCCGGCAUGGUACCAGCCUCCUCGCUGGCGCCGGCUGGGCACCAUUCCGAGGGGACCGUCCCCUCGGUAAUGGCGAAUGGGACCCA [C13A A43C] | 0.135
16 | GGCCGGCAUGGGCCCAGCCUCCUCGCUGGCGCCGGCUGGGCAACAUCCCGAGGGGACCGUCCCCUCGGUAAUGGCGAAUGGGACCCA [U12G U47C] | 0.437
17 | GGCCGGCAUGGGCCCAGCCUCCUCGCUGGCGCCGGCUGGGCAACAUGCCGAGGGGACCGUCCCCUCGGUAAUGGCGAAUGGGACCCA [U12G U47G] | 1.21
18 | GGCCGGCAUGGUACCAGCCUCCUCGCUGGCGCCGGCUGGGCAACAUUCCGAGGGGACCGUCCCGUCGGUAAUGGCGAAUGGGACCCA [C13A C64G] | 0.19
19 | GGCCGGCAUGGUACCAGCCUCCUCGCUGGCGCCGGCUGGGCAACAUUCCGAGGGGACCGUCCCUUCGGUAAUGGCGAAUGGGACCCA [C13A C64U] | 0.242
20 | GGCCGGCAUGGUACCAGCCUCCUCGCUGGCGCCGGCUGGGCAACAUUCCGAGGGGACCGUCCCCUCGGUAAUGGCGACUGGGACCCA [C13A A78C] | 0.0297
21 | GGCCGGCAUGGUACCAGCCUCCUCGCUGGCGCCGGCUGGGCAACAUUCCGAGGGGACCGUCCCCUCGGUAAUGGCGAGUGGGACCCA [C13A A78G] | 0.0773
22 | GGCCGGCAUGGUACCAGCCUCCUCGCUGGCGCCGGUUGGGCAACAUUCCGAGGGGACCGUCCCCUCGGUAAUGGCGAAUGGGACCCA [C13A C36U] | 0.0432

Row | Variant | self-cleavage
23 | GGCCGGCAUGGUACCAGCCUCCUCGCUGGCGCCGGGUGGGCAACAUUCCGAGGGGACCGUCCCCUCGGUAAUGGCGAAUGGGACCCA [C13A C36G] | 0.192
24 | GGCCGGCAUGGUACCAGCCUCCUCGCUGGCGCCGGAUGGGCAACAUUCCGAGGGGACCGUCCCCUCGGUAAUGGCGAAUGGGACCCA [C13A C36A] | 0.0421
25 | GGCCGGCAUGGUAACAGCCUCCUCGCUGGCGCCGGCUGGGCAACAUUCCGAGGGGACCGUCCCCUCGGUAAUGGCGAAUGGGACCCA [C13A C14A] | 0.128
26 | GGCCGGCAUGGUACCAGCCUCCUGGCUGGCGCCGGCUGGGCAACAUUCCGAGGGGACCGUCCCCUCGGUAAUGGCGAAUGGGACCCA [C13A C24G] | 0.117
27 | GGCCGGCAUGGUACCAGCCUCCUAGCUGGCGCCGGCUGGGCAACAUUCCGAGGGGACCGUCCCCUCGGUAAUGGCGAAUGGGACCCA [C13A C24A] | 0
28 | GGCCGGCAUGGUACCAGCCUCCUCGCUGGCGCCGGCUGGGCAACAUUCCGAGGGGACCGUCCCCUCGGUUAUGGCGAAUGGGACCCA [C13A A70U] | 0.0405
29 | GGCCGGCAUGGUACCAGCCUCCUCGCUGGCGCCGGCUGGGCAACAUUCCGAGGGGACCGUCCCCUCGGUCAUGGCGAAUGGGACCCA [C13A A70C] | 0.285
30 | GGCCGGCAUGGUACCAGCCUCCUCGCUGGCGCCGGCUGGGCAACAUUACGAGGGGACCGUCCCCUCGGUAAUGGCGAAUGGGACCCA [C13A C48A] | 0
31 | GGCCGGCAUGGUACCAGCCUCCUCGCUGGCGCCGGCUGGGCAACAUUGCGAGGGGACCGUCCCCUCGGUAAUGGCGAAUGGGACCCA [C13A C48G] | 0.138
32 | GGCCGGCAUGGUACCAGCCUCCUCGCUGGCGCCGGCUGGGCAACAUUCCGAGGGGACCGUCCCCUCGGUAAUGGCGAAUGGGACCCA [C13A] | 0.21
33 | GGCCGGCAUGGUACCAGCCUCCUCGCUGGCGCCGGCUGGGCAACAUUCCGAGGGGAGCGUCCCCUCGGUAAUGGCGAAUGGGACCCA [C13A C57G] | 0.19
34 | GGCCGGCAUGGGCCCAGCCUCCUCGCUGGCGCCGGCUGGGCAACAUUCCGAGGGGACCGUCCCCUCGGUAAUGGCGAACGGGACCCA [U12G U79C] | 0.243
35 | GGCCGGCAUGGUACCAGCCUCCUCGCUGGCGCCGGCUGGGCAACAUUCCGAGGGGACCGUCCCCUGGGUAAUGGCGAAUGGGACCCA [C13A C66G] | 0.378
36 | GGCCGGCAUGGUACCAGCCUCCUCGCUGGCGCCGGCUGGGCAACAUUCCGAGGGGACCGUCCCCUAGGUAAUGGCGAAUGGGACCCA [C13A C66A] | 0.125
37 | GGCCGGCAUGGUACCAGCCUCCUCGCUGGCGCCGGCUGGGCAACAUUCCGAGGGGACCGUCCCCUUGGUAAUGGCGAAUGGGACCCA [C13A C66U] | 0.125
38 | GGCCGGCAUGGUACCAGCCUCCUCGCUGGCGCCGGCUGGGCAACAUUCCGAGGGGACCGUCCCCUCGGUAAUGGGGAAUGGGACCCA [C13A C75G] | 0.145
39 | GGCCGGCAUGGUACCAGCCUCCUCGCUGGCGCCGGCUGGGCAACAUUCCGAGGGGACCGUCCCCUCGGUAAUGGAGAAUGGGACCCA [C13A C75A] | 0.0573
40 | GGCCGGCAUGGGCCCAGCCUCCUCGCUGGCGCCGGCUGGGCAACAUUCCGAGGGGACCGUCCCCUCGGUAAAGGCGAAUGGGACCCA [U12G U72A] | 0.525
41 | GGCCGGCAUGGUACCAGCCUCCUCGCUGGCGCCGGCUGGGCAACAUUCCGAGGGGACCGUCCCCUCGGUAAUGGCGAAUGGGGCCCA [C13A A83G] | 0.086
42 | GGCCGGCAUGGUACCAGCCUCCUCGCUGGCGCCGGCUGGGCAACAUUCCGAGGGGACCGUCCCCUCGGUAAUGGCGAAUGGGCCCCA [C13A A83C] | 0.166
43 | GGCCGGCAUGGUACCAGCCUCCUCGCUGGCGCCGGCUGGGCAACAUUCCGAGGGGUCCGUCCCCUCGGUAAUGGCGAAUGGGACCCA [C13A A56U] | 0.312
44 | GGCCGGCAUGGGCCCAGCCUCCUCGCUGGCGCCGGCUGGGCAACAUUCCGAGGGGACCGUCCCCUCGGGAAUGGCGAAUGGGACCCA [U12G U69G] | 0.831

Row | Variant | self-cleavage
45 | GGCCGGCAUGGUACCAGCCUCCUCGCUGGCGCCGGCUGGGUAACAUUCCGAGGGGACCGUCCCCUCGGUAAUGGCGAAUGGGACCCA [C13A C41U] | 0.149
46 | GGCCGGCAUGGUACCAGCCUCCUCGCUGGCGCCGGCUGGGAAACAUUCCGAGGGGACCGUCCCCUCGGUAAUGGCGAAUGGGACCCA [C13A C41A] | 0.219
47 | GGCCGGCAUGGUACCAGCCUCCUCGCUGGCGCCGGCUGGGCAACAUUCCGGGGGGACCGUCCCCUCGGUAAUGGCGAAUGGGACCCA [C13A A51G] | 0.148
48 | GGCCGGCAUGGUACCAGCCUCCUCGCUGGCGCCGGCUGGGCAACAUUCCGCGGGGACCGUCCCCUCGGUAAUGGCGAAUGGGACCCA [C13A A51C] | 0.0898
49 | GGCCGGCAUGGUACCAGCCUCCUCGCUGGCGCUGGCUGGGCAACAUUCCGAGGGGACCGUCCCCUCGGUAAUGGCGAAUGGGACCCA [C13A C33U] | 0.369
50 | GGCCGGCAUGGUACCAGCCUCCUCGCUGGCGCAGGCUGGGCAACAUUCCGAGGGGACCGUCCCCUCGGUAAUGGCGAAUGGGACCCA [C13A C33A] | 0.0396
51 | GGCCGGCAUGGUACCAGCCUCAUCGCUGGCGCCGGCUGGGCAACAUUCCGAGGGGACCGUCCCCUCGGUAAUGGCGAAUGGGACCCA [C13A C22A] | 0.0287
52 | GGCCGGCAUGGUACCAGCCUCGUCGCUGGCGCCGGCUGGGCAACAUUCCGAGGGGACCGUCCCCUCGGUAAUGGCGAAUGGGACCCA [C13A C22G] | 0.026
53 | GGCCGGCAUGGUACCAGCCUCCUCGCUGGCGGCGGCUGGGCAACAUUCCGAGGGGACCGUCCCCUCGGUAAUGGCGAAUGGGACCCA [C13A C32G] | 0.0346
54 | GGCCGGCAUGGGCCCAGCCUCCUCGCUGGCGCCGGCUGGGCAACAUUCCGAGGGGACCGCCCCCUCGGUAAUGGCGAAUGGGACCCA [U12G U60C] | 0.895
55 | GGCCGGCAUGGGCCCAGCCUCCUCGCUGGCGCCGGCUGGGCAACAUUCCGAGGGGACCGGCCCCUCGGUAAUGGCGAAUGGGACCCA [U12G U60G] | 0.831
56 | GGCCGGCAUGGUACAAGCCUCCUCGCUGGCGCCGGCUGGGCAACAUUCCGAGGGGACCGUCCCCUCGGUAAUGGCGAAUGGGACCCA [C13A C15A] | 0
57 | GGCCGGCAUGGUACUAGCCUCCUCGCUGGCGCCGGCUGGGCAACAUUCCGAGGGGACCGUCCCCUCGGUAAUGGCGAAUGGGACCCA [C13A C15U] | 0.185
58 | GGCCGGCAUGGUACCAGCCUCCUCGCUGGCGCCGGCUGGGCAACAUUCCGAGGGGACCGUCACCUCGGUAAUGGCGAAUGGGACCCA [C13A C62A] | 0.158
59 | GGCCGGCAUGGUACCAGCCUCCUCGCUGGCGCCGGCUGGGCAACAUUCCGAGGGGACCGUCUCCUCGGUAAUGGCGAAUGGGACCCA [C13A C62U] | 0.214
60 | GGCCGGCAUGGUACCAGGCUCCUCGCUGGCGCCGGCUGGGCAACAUUCCGAGGGGACCGUCCCCUCGGUAAUGGCGAAUGGGACCCA [C13A C18G] | 0.0773
61 | GGCCGGCAUGGUACCAGUCUCCUCGCUGGCGCCGGCUGGGCAACAUUCCGAGGGGACCGUCCCCUCGGUAAUGGCGAAUGGGACCCA [C13A C18U] | 0.0604
62 | GGCCGGCAUGGUACCAGCCUCCUCGCUGGCGCCGGCUGGGCAACAUUCCGAGGGGACCGUCCCCUCGGUAUUGGCGAAUGGGACCCA [C13A A71U] | 0.0615
63 | GGCCGGCAUGGGCCCAGCCUCCCCGCUGGCGCCGGCUGGGCAACAUUCCGAGGGGACCGUCCCCUCGGUAAUGGCGAAUGGGACCCA [U12G U23C] | 0.997
64 | GGCCGGCAUGGUACCAGCCUCCUCGCUGGCGCCGGCUGGGCAACAUUCCGAGGGGACCGUCCUCUCGGUAAUGGCGAAUGGGACCCA [C13A C63U] | 0.0627
